Consider one molecule from US9274110B2, “Diagnosis method of active tuberculosis” (priority 2011, dated 2016).

For the data set the following is noted: cell wall of M. smegmatis overexpressing LipY vs control mycobacteria; 0.5 mM substrate, 40 min, 35° C.

B1: LipY: triacylglycerol hydrolase LipY (Rv3097c) of Mycobacterium tuberculosis, SEQ ID NO: 3 (protein, listed as Mycobacterium tuberculosis)
chain: PEVVFIHGSVVSYVVALPEVMSAAATDVASIGSVVATASQGVAGATTTVLAAAEDEVSAAIAALFSGHGQDYQALSAQLAVFHERFVQALTGAAKGYAAAELANASLLQSEFASGIGNGFATIHQEIQRAPTALAAGFTQVPPFAAAQAGIFTGTPSGAAGFDIASLWPVKPLLSLSALETHFAIPNNPLLALIASDIPPLSWFLGNSPPPLLNSLLGQTVQYTTYDGMSVVQITPAHPTGEYVVAIHGGAFILPPSIFHWLNYSVTAYQTGATVQVPIYPLVQEGGTAGTVVPAMAGLISTQIAQHGVSNVSVVGDSAGGNLALAAAQYMVSQGNPVPSSMVLLSPWLDVGTWQISQAWAGNLAVNDPLVSPLYGSLNGLPPTYVYSGSLDPLAQQAVVLEHTAVVQGAPFSFVLAPWQIHDWILLTPWGLLSWPQINQQLGIAASDIHHHHHH
Regarding B1, the “Lipase activity: degradation of para-Nitrophenyl stearate, absorbance at 405 nm” value is listed as “demonstrating the lipase activity”.
